Experimental data: publication PMC4423959, “The Nucleoid Occlusion SlmA Protein Accelerates the Disassembly of the FtsZ Protein Polymers without Affecting Their GTPase Activity” (PLoS ONE, 2015)
Where two headings read alike, the source gives them in different places.

B3: E. coli FtsZ (natural protein, UniProt P0A9A6 1-383, looked up)
chain: MFEPMELTNDAVIKVIGVGGGGGNAVEHMVRERIEGVEFFAVNTDAQALRKTAVGQTIQIGSGITKGLGAGANPEVGRNAADEDRDALRAALEGADMVFIAAGMGGGTGTGAAPVVAEVAKDLGILTVAVVTKPFNFEGKKRMAFAEQGITELSKHVDSLITIPNDKLLKVLGRGISLLDAFGAANDVLKGAVQGIAELITRPGLMNVDFADVRTVMSEMGYAMMGSGVASGEDRAEEAAEMAISSPLLEDIDLSGARGVLVNITAGFDLRLDEFETVGNTIRAFASDNATVVIGTSLDPDMNDELRVTVVATGIGMDKRPEITLVTNKQVQQPVMDRYQQHGMAPLTQEQKPVAKVVNDNAPQTAKEPDYLDIPAFLRKQAD
notes: Cell division protein FtsZ of E. coli; The nucleotide state (GDP: oligomers); In AUC and FCS a tracer share of FtsZ labelled on amine groups with Alexa Fluor 488 (FtsZ-Alexa 488) was mixed with unlabelled FtsZ; also called FtsZ-GDP; FtsZ-GTP; source: isolated as described elsewhere [40]

Experiments:
FtsZ (Escherichia coli) [1] = molecular target: FtsZ (Escherichia coli) (UniProt P0A9A6); conditions: cited from earlier work
FtsZ (Escherichia coli) [2] = molecular target: FtsZ (Escherichia coli) (UniProt P0A9A6); conditions: cited from earlier work; remark: listed apart in the source
[3] = molecular target: the molecule itself; assay: SEC-MALS; Superdex 200 10/300 GL, 0.5 mL/min, 20°C, working buffer (50 mM Tris-HCl, 300 mM KCl, 2 mM MgCl2, pH 7.5); SlmA 10 μM (also 6 μM), no DNA
E. coli FtsZ = molecular target: B3; assay: fluorescence polarisation; anisotropy titration of FtsZ with 1 mM GTP + regeneration system into SlmA 2 μM with fluorescein-SBScons 0.2 μM (also 1 μM and 10 nM); 20°C, working buffer (50 mM Tris-HCl, 300 mM KCl, 2 mM MgCl2, pH 7.5); 1:1 model, apparent Kd in FtsZ monomer concentration; conditions: both partners purified
[4] = molecular target: the molecule itself; assay: AUC; sedimentation velocity, 48,000 rpm, 20°C, working buffer (50 mM Tris-HCl, 300 mM KCl, 2 mM MgCl2, pH 7.5); FtsZ-GDP 30 μM total with 6 μM FtsZ-Alexa 488 as tracer, without or with SlmA 15 μM and SBScons 4 μM
SlmA [5] = molecular target: T1, SlmA (UniProt P0C093 1-198); assay: fluorescence anisotropy; 300 mM KCl, 2 mM MgCl2; apparent Kd, 4:1 model; dG 18.0 ± 0.2 kcal/mol; 50 mM Tris-HCl, 300 mM KCl, 2 mM MgCl2, pH 7.5, 20 C; 10 nM labeled SBS in SlmA anisotropy titrations; conditions: protein: recombinant; tags: SUMO tag cleaved off; chain copies: 4; label: fluorescein on T at position 27 from the 5' end of the antisense strand; blunt
T1 sequence: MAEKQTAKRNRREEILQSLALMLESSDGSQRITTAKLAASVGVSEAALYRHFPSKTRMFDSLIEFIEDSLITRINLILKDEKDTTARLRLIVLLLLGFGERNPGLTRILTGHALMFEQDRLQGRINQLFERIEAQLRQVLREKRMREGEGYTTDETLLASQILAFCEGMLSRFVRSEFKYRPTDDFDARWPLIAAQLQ

SlmA [6] = molecular target: T1, SlmA; assay: fluorescence anisotropy; 300 mM KCl, 2 mM MgCl2; apparent Kd, 4:1 model; dG 20.3 ± 0.2 kcal/mol; 50 mM Tris-HCl, 300 mM KCl, 2 mM MgCl2, pH 7.5, 20 C; 10 nM labeled SBS in SlmA anisotropy titrations; conditions: protein: recombinant; tags: SUMO tag cleaved off; chain copies: 4; label: 5' fluorescein on sense strand (anisotropy); blunt
SlmA [7] = molecular target: T1, SlmA; assay: fluorescence anisotropy; 300 mM KCl, 2 mM MgCl2; apparent Kd, 4:1 model; dG 17.6 ± 0.2 kcal/mol; 50 mM Tris-HCl, 300 mM KCl, 2 mM MgCl2, pH 7.5, 20 C; 10 nM labeled SBS in SlmA anisotropy titrations; conditions: protein: recombinant; tags: SUMO tag cleaved off; chain copies: 4; label: 5' fluorescein on sense strand (anisotropy); blunt

## SlmA (from UniProt P0C093)
FtsZ (Escherichia coli) [1]
  Kd: 200 nM

## MinC (from UniProt P18196)
FtsZ (Escherichia coli) [2]
  Kd: 8000 nM

B1: SlmA (free, without DNA) (natural protein, E. coli, UniProt P0C093 1-198, looked up)
chain: MAEKQTAKRNRREEILQSLALMLESSDGSQRITTAKLAASVGVSEAALYRHFPSKTRMFDSLIEFIEDSLITRINLILKDEKDTTARLRLIVLLLLGFGERNPGLTRILTGHALMFEQDRLQGRINQLFERIEAQLRQVLREKRMREGEGYTTDETLLASQILAFCEGMLSRFVRSEFKYRPTDDFDARWPLIAAQLQ
notes: Nucleoid occlusion factor SlmA of E. coli; Dimer by SEC-MALLS in the absence of DNA; also called free SlmA; source: purified and cleaved from SUMO protein essentially as described in [31]
[3]
  stoichiometry N: 2

B2: SlmA·SBS complex (four SlmA monomers, as two dimers, bound to one SBScons DNA) (complex, E. coli, UniProt P0C093 1-198, looked up)
chain: MAEKQTAKRNRREEILQSLALMLESSDGSQRITTAKLAASVGVSEAALYRHFPSKTRMFDSLIEFIEDSLITRINLILKDEKDTTARLRLIVLLLLGFGERNPGLTRILTGHALMFEQDRLQGRINQLFERIEAQLRQVLREKRMREGEGYTTDETLLASQILAFCEGMLSRFVRSEFKYRPTDDFDARWPLIAAQLQ
notes: Nucleoid occlusion factor SlmA of E. coli; same chain as m2; 4:1 SlmA:SBS by sedimentation velocity and SEC-MALLS; also called SlmA SBScons; SlmA:SBScons
E. coli FtsZ
  Kd: 12000 nM

## B3
[4]
  binding result: binds

B4: SBS17 (dsDNA)
DNA 1: TCAACGTTAGTGACCATTTACTTACTTTTG
DNA 2: CAAAAGTAAGTAAATGGTCACTAACGTTGA
SlmA [5]
  Kd: 190 ± 30 nM

B5: SBScons (dsDNA)
DNA 1: AAGTAAGTGAGCGCTCACTTACGT
DNA 2: ACGTAAGTGAGCGCTCACTTACTT
SlmA [6]
  Kd: 25 ± 4 nM

B6: SBS12 (dsDNA)
DNA 1: CGCGAAGTGAACGCTAACTCACTG
DNA 2: CAGTGAGTTAGCGTTCACTTCGCG
SlmA [7]
  Kd: 270 ± 50 nM
